# Positions count from the first letter of the chain named.
# T1: Human OX40 (Sino Biological Inc) (human, UniProt P43489 29-216, limits assumed)
# T1 construct: Bought soluble protein used as SPR analyte; also called huOX40
# T1 sequence: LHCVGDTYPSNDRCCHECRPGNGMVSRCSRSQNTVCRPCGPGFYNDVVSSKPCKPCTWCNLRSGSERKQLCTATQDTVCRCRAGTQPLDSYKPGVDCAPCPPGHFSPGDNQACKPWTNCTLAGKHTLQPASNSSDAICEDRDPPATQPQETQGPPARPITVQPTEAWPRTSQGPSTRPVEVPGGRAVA
# B1: 3C8.gr.1 (antibody, V domains shown)
# VH: EVQLVQSGAEVKKPGASVKVSCKASGYAFTNYLIEWVRQAPGQGLEWIGVINPGSGDTYYSEKFKGRVTITRDTSTSTAYLELSSLRSEDTAVYYCARDRLDYWGQGTLVTVSS
# VL: DIQMTQSPSSLSASVGDRVTITCHASQDISSYIVWYQQKPGKAPKLLIYHGTNLEDGVPSRFSGSGSGTDFTLTISSLQPEDFATYYCVHYAQFPYTFGQGTKVEIK
# notes: human Fc
# B2: 3C8.gr.4 (antibody, V domains shown)
# VH: B1 VH with R72A
# VL: B1 VL with A43S, P44F, L46G
# notes: human Fc
# B3: 3C8.gr.5.QG (antibody, V domains shown)
# VH: B1 VH with I70L, R72A
# VL: B1 VL with A43S, P44F, L46G, D56Q
# B4: 3C8.gr.6 (antibody, V domains shown)
# VH: B1 VH with R72A
# VL: B1 VL with A43S, P44F, L46G, T69A, F71Y
# notes: human Fc
# B5: 3C8.gr.8 (antibody, V domains shown)
# VH: B1 VH with I70L
# VL: B1 VL with A43S, P44F, L46G
# notes: human Fc
# B6: 3C8.gr.2 (antibody, V domains shown)
# VH: B1 VH with R72A
# VL: B1 VL
# notes: human Fc
# B7: 3C8.gr.7 (antibody, V domains shown)
# VH: B1 VH with I70L, R72A
# VL: B1 VL with A43S, P44F, L46G, T69A, F71Y
# notes: human Fc
# B8: 3C8.gr.3 (antibody, V domains shown)
# VH: B1 VH with I70L, R72A
# VL: B1 VL
# notes: human Fc
# B9: 3C8.gr.9 (antibody, V domains shown)
# VH: B1 VH with I70L
# VL: B1 VL with A43S
# notes: human Fc
# B10: 1A7.gr.3 (antibody, V domains shown)
# VH: EVQLVQSGAEVKKPGASVKVSCKASGYTFTDSYMSWVRQAPGQGLEWIGDMYPDNGDSSYNQKFRERVTLTVDTSTSTAYLELSSLRSEDTAVYYCVLAPRWYFSVWGQGTLVTVSS
# VL: DIQMTQSPSSLSASVGDRVTITCRASQDISNYLNWYQQKPGKAPKLLIYYTSRLRSGVPSRFSGSGSGTDFTLTISSLQPEDFATYYCQQGHTLPPTFGQGTKVEIK
# notes: human Fc
# B11: 1A7.gr.5′ (antibody, V domains shown)
# VH: B10 VH
# VL: B10 VL with A43T, P44V
# notes: human Fc
# B12: 1A7.gr.4 (antibody, V domains shown)
# VH: B10 VH with L70I
# VL: B10 VL with A43T, P44V
# notes: human Fc
# B13: 1A7.gr.7′ (antibody, V domains shown)
# VH: B10 VH
# VL: B10 VL with A43T, P44V, T69K, F71Y, Y87F
# notes: human Fc
# B14: 1A7.gr.6 (antibody, V domains shown)
# VH: B10 VH with L70I
# VL: B10 VL with A43T, P44V, T69K, F71Y, Y87F
# notes: human Fc
# Molecular target: T1, Human OX40 (Sino Biological Inc)
# Assay: SPR (Biacore), antibody captured via anti-human Fc, huOX40 analyte
# Experimental: The binding kinetics of the anti-OX40 antibodies was measured using surface plasmon resonance (SPR) on a Biacore 3000 instrument (GE Healthcare). Anti-human Fc (GE Healthcare) was immobilized on a CM5 sensor chip via amine-based coupling using manufacturer provided protocol. Anti-OX40 antibody was captured at a level of 300-400 resonance units (RU). Antibody binding was measured to human OX40 (Sino Biological Inc). Two-fold concentration series of huOX40 with a range of either 18.75 to 300 nM or 6.25 to 200 nM were used for the experiments. Sensorgrams for binding of OX40 were recorded using an injection time of 2 minutes with a flow rate of 30 μl/min, at a temperature of 25° C., and with a running buffer of 10 mM HEPES, pH 7.4, 150 mM NaCl, and 0.005% Tween 20. After injection, disassociation of the ligand from the antibody was monitored for 600 seconds in running buffer. The surface was regenerated between binding cycles with a 40 μl injection of 3 M Magnesium Chloride.
Kd [nM],koff [s⁻¹],kon [M⁻¹ s⁻¹],Binder
6.49,0.00267,412000,B1
2.2,0.000923,420000,B2
1.17,0.000534,457000,B3
3.08,0.00122,395000,B4
2.16,0.000709,329000,B5
5.48,0.00255,466000,B6
1.41,0.000685,486000,B7
3.94,0.00196,498000,B8
4.28,0.00173,404000,B9
0.525,0.000243,462000,B10
1.77,0.000492,278000,B11
0.472,0.000163,345000,B12
0.36,0.000145,401000,B13
0.177,6.93e-05,391000,B14
